We go through 2 molecules from patent US20250304965A1, “DOUBLE-STRANDED RNA MOLECULE AND PHARMACEUTICAL USE THEREOF” (MACAU UNIVERSITY OF SCIENCE AND TECHNOLOGY, priority 2022, published 2025).

[Ψ] = pseudouridine

Assay type in all cases: cell-based, human
One series deals with A2780 cells. As to the kind of experiment: MTT cytotoxicity analysis, ovarian cancer cells A2780. The following applies: for IC50: A2780 ovarian cancer cells, 48 hours of treatment, Lipofectamine RNAiMAX transfection reagent, MTT, read-out: Median inhibitory concentration IC50; for inhibition of growth and proliferation (cell viability vs control and RNAiMAX group): ovarian cancer cells A2780, 6.25-200 nM, 48 hours, FIG. 6-8. Here is the method: (§1) A2780 and HCT-8 cell lines were cultured in RPMI 1640 medium containing 10% FBS and 1% penicillin/streptomycin. HepG2 cell lines were cultured in MEM medium containing 10% FBS and 1% penicillin/streptomycin. All the above cell lines were cultured at 37° C. in a humidified atmosphere containing 5% CO2.
(§2) In the cytotoxicity analysis, exponentially growing cells of each cancer cell line were inoculated at a density of 5000 cells per well in a 100 μL medium in a 96-well microplate and allowed to adhere for 24 hours prior to treatment. Then obtained RNA molecules at successive concentrations with a nucleic acid transfer vector, namely, Lipofectamine™ RNAiMAX transfection reagent (Thermo Fisher Scientific, United States), were added to the cells. After 48 hours of treatment, MTT solution (50 μL per well, 1 mg/mL solution) was added to each well and incubated at 37° C. for 4 hours. Then 200 μL of dimethyl sulfoxide (DMSO) was added, and an optical density of the resulting solution was measured via calorimetry by using SpectraMax 190 microplate reader (Molecular Devices, United States) at 570 nm. Dose-response curves were obtained and IC50 values were calculated via GraphPad Prism 5 (GraphPad, United States). Each experiment was performed three times.
(§3) Before addition of the MTT solution, the inventor determined the cytotoxic effects and IC 50 of the GL1, GL2, GL4, and GL6 mimics at different concentrations of 6.25 nM, 12.5 nM, 25 nM, 50 nM, 100 nM, and 200 nM on A2780, HCT-8 and HepG2 cells. After 48 hours of the treatment of the double-stranded RNA molecules, the cell viability of these cells was compared with that of the control group and the RNAiMAX group. Paclitaxel was used in a comparative example. […] The results were compared with those of the control group and the RNAiMAX group using the transfection agent. For IC50, refer to Table 4. Paclitaxel was used in a comparative example.
(§4) Then the inventor specifically determined the cytotoxic effects and IC50 of the RNA molecules GL2 mimic and different chemically modified GL10, GL11 and GL12 mimics at different concentrations of 6.25 nM, 12.5 nM, 25 nM, 50 nM, 100 nM, and 200 nM on A2780, HCT-8 and HepG2 cells. […] For IC50, refer to Table 5. Paclitaxel was used in a comparative example.

Another series relates to HCT-8 cells. The series can be described thus: MTT cytotoxicity analysis, colorectal cancer cells HCT-8. Particulars: for IC50: HCT-8 colorectal cancer cells, 48 hours of treatment, Lipofectamine RNAiMAX transfection reagent, MTT, read-out: Median inhibitory concentration IC50; for inhibition of growth and proliferation (cell viability vs control and RNAiMAX group): colon cancer cells HCT-8, 6.25-200 nM, 48 hours, FIG. 6-8. The procedure:
as §1, §2, §3, §4

In a further series the test system is HepG2 cells. As to the kind of experiment: MTT cytotoxicity analysis, liver cancer cells HepG2. The following applies: for IC50: HepG2 liver cancer cells, 48 hours of treatment, Lipofectamine RNAiMAX transfection reagent, MTT, read-out: Median inhibitory concentration IC50; for inhibition of growth and proliferation (cell viability vs control and RNAiMAX group): liver cancer cells HepG2, 6.25-200 nM, 48 hours, FIG. 6-8. Here is the method: as §1, §2, §3, §4

B1: GL12 mimic: chemically modified GL2 double-stranded RNA (pseudouridine); antisense SEQ ID NO: 22, sense SEQ ID NO: 26, length 41 (nucleic acid)
antisense: AUAAGGAAUCUGUAGAAGUUCGAUUCUUCUUGGGCUUACCA
sense: UGGUAAGCCCAAGAAGAAUCGAACUUCUACAGAUUCCUUAU
modifications: antisense: RNA, [Ψ] at 20, backbone not given here; sense: RNA, backbone not given here
For the molecule B1, the IC50 in the series on A2780 cells is 43.7 nM; in the series on HCT-8 cells, 32.4 nM; in the series with HepG2 cells, 183 nM. The “inhibition of growth and proliferation (cell viability vs control and RNAiMAX group)” value was “have a dose-dependent effect on inhibiting the growth and proliferation” in the series with A2780 cells; “have a dose-dependent effect on inhibiting the growth and proliferation” in the series with HCT-8 cells; “have a dose-dependent effect on inhibiting the growth and proliferation” in the series with HepG2 cells.

B2: GL11 mimic: chemically modified GL2 double-stranded RNA (5-methyluridine); antisense SEQ ID NO: 21, sense SEQ ID NO: 25, length 41 (nucleic acid)
antisense: AUAAGGAAUCUGUAGAAGTUCGAUUCUUCUUGGGCUUACCA
sense: UGGUAAGCCCAAGAAGAAUCGAACUUCUACAGAUUCCUUAU
modifications: RNA, backbone not given here; further chemistry not fully specified
B2: the IC50 in the series on A2780 cells worked out at 17.2 nM; in the series with HCT-8 cells, 31.5 nM; in the series on HepG2 cells it was 85.3 nM. Further, the “inhibition of growth and proliferation (cell viability vs control and RNAiMAX group)” value in the series with A2780 cells was “have a dose-dependent effect on inhibiting the growth and proliferation”; with HCT-8 cells, “have a dose-dependent effect on inhibiting the growth and proliferation”; with HepG2 cells, “have a dose-dependent effect on inhibiting the growth and proliferation”.
